Source: US20240376156A1, “MULTIPLE DE NOVO DESIGNED PROTEIN BINDING PROTEINS” (UNIVERSITY OF WASHINGTON, priority 2021, published 2024)
Read-outs that look alike come from different tables or passages of the source.

Columns and labels:
IL-7Rα = molecular target: T1, IL-7Rα (Homo sapiens, UniProt P16871); assay: Biolayer interferometry binding to IL-7Rα
T1 construct: IL-7Rα (residues 37-231, Uniprot ID P16871); IgK signal peptide (N); made in house; host or cells: mammalian cells
T1 sequence (P16871 37-231): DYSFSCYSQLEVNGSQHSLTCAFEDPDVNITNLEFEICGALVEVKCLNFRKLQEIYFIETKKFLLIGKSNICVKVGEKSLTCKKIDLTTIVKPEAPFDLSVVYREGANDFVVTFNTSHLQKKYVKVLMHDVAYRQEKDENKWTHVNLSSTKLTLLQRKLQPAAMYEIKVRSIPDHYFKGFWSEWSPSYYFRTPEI

[1] = Circular dichroism wavelength scans and temperature melts (Tm); type: physicochemical
[2] = molecular target: T2, EGFR ectodomain (residues 25-525) (human, UniProt P00533 25-525); assay: BLI (Octet); biotinylated target on streptavidin sensors, miniprotein as analyte
T2 construct: also called EGER; Epidermal growth factor receptor

InsulinR = molecular target: T3, InsulinR (Homo sapiens, UniProt P06213); assay: Biolayer interferometry binding to InsulinR (miniprotein on AR2G biosensor, receptor as analyte)
T3 construct: InsulinR (residues ID 28-953, Uniprot ID P06213); IgK signal peptide (N); TEV cleavage site (C); 6-His-tag (C); AviTag (C); made in house; host or cells: mammalian cells

[3] = molecular target: IL-7Rα ectodomain (residues 37-231) (human, UniProt P16871 37-231); assay: BLI (Octet); biotinylated target on streptavidin sensors, miniprotein as analyte
[4] = molecular target: T4, PDGFR ectodomain (residues 33-314) (human, UniProt P09619 33-314); assay: as above
T4 construct: range 33-314; also called Platelet-derived growth factor receptor

[5] = molecular target: Human TrkA ECD (residues 36-382) with C-terminal BAP tag and 6xHis tag (human, UniProt P04629 36-382); assay: biolayer interferometry
[6] = molecular target: human TrkA ECD (residues 36-382) (human, UniProt P04629 36-382); assay: BLI (Octet); biotinylated target on streptavidin sensors, miniprotein as analyte
[7] = molecular target: VirB8-like protein from Rickettsia typhi (Rickettsia typhi); assay: as above
VirB8 = type: binding, Rickettsia typhi; details: read-out: Octet kD
[8] = molecular target: T5, Tie2 ectodomain (residues 23-445) (human, UniProt Q02763 23-445); assay: BLI (Octet); biotinylated target on streptavidin sensors, MBP-tagged miniprotein as analyte
T5 construct: range 23-445; also called Angiopoietin-1 receptor

Tie2 = molecular target: T6, Tie2 (Homo sapiens, UniProt Q02763); assay: Biolayer interferometry binding to Tie2 (MBP-tagged miniprotein as analyte)
T6 construct: Tie2 (residues 23-445, Uniprot ID Q02763); IgK signal peptide (N); made in house; host or cells: mammalian cells

FGFR2 = molecular target: T7, FGFR2 (Homo sapiens, UniProt P21802); assay: Biolayer interferometry binding to FGFR2
T7 construct: FGFR2 (residues 147-366, Uniprot ID P21802); IgK signal peptide (N); made in house; host or cells: mammalian cells

signaling through FGFR2 = assay: Inhibition of native agonist signaling through FGFR2 on cells in culture; type: cell-based; details: data not shown
[9] = molecular target: T8, InsulinR ectodomain (residues 28-953) (human, UniProt P06213 28-953); assay: BLI (Octet); miniprotein immobilized on AR2G sensors, insulin receptor as analyte
T8 construct: range 28-953; also called IR; Insulin receptor

[10] = molecular target: T9, FGFR2 ectodomain (residues 147-366) with C-terminal TEV/His/AviTag (human, UniProt P21802 147-366); assay: biolayer interferometry
T9 construct: range 147-366; also called Fibroblast growth factor receptor 2

[11] = molecular target: T10, FGFR2 ectodomain (residues 147-366) (human, UniProt P21802 147-366); assay: BLI (Octet); biotinylated target on streptavidin sensors, miniprotein as analyte
T10 construct: range 147-366; also called FGER2; Fibroblast growth factor receptor 2

IGF1R = molecular target: T11, IGF1R (Homo sapiens, UniProt P08069); assay: Biolayer interferometry binding to IGF1R (MBP-tagged miniprotein as analyte)
T11 construct: IGF1R (residues 31-930, Uniprot ID P08069); IgK signal peptide (N); made in house; host or cells: mammalian cells

[12] = molecular target: T12, IGF1R ectodomain (residues 31-930) (human, UniProt P08069 31-930); assay: BLI (Octet); biotinylated target on streptavidin sensors, MBP-tagged miniprotein as analyte
T12 construct: range 31-930; also called IGFIR; Insulin-like growth factor 1 receptor

[13] = molecular target: T13, Biotinylated CD3 protein (Abcam Cat #ab205994) (human, UniProt P04234 22-105); assay: BLI (Octet); biotinylated target on streptavidin sensors, miniprotein as analyte
T13 construct: also called CD3δ; CD3 delta chain

[14] = molecular target: Influenza A H3 hemagglutinin (A/Hong Kong/1/1968) ectodomain (Influenza A virus (A/Hong Kong/1/1968), UniProt Q91MA7 17-530); assay: as above
[15] = molecular target: T14, Influenza A H1 hemagglutinin (A/Puerto Rico/8/1934), ectodomain (Influenza A virus (A/Puerto Rico/8/1934), UniProt P03452 18-528); assay: method not named in the sentence (FIG. 7b)
T14 construct: extracellular domain

[16] = molecular target: T15, TGF-β (Acro Biosystems Cat #TG1-H8217) (human, UniProt P01137 279-390); assay: BLI (Octet); biotinylated target on streptavidin sensors, miniprotein as analyte
T15 construct: also called TGFb; Transforming growth factor beta
T15 sequence (P01137 279-390 limits assumed): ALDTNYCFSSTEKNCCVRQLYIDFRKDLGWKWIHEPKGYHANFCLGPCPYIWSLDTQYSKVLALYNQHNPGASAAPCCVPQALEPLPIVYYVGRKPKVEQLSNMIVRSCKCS

T6 sequence (Q02763 23-445): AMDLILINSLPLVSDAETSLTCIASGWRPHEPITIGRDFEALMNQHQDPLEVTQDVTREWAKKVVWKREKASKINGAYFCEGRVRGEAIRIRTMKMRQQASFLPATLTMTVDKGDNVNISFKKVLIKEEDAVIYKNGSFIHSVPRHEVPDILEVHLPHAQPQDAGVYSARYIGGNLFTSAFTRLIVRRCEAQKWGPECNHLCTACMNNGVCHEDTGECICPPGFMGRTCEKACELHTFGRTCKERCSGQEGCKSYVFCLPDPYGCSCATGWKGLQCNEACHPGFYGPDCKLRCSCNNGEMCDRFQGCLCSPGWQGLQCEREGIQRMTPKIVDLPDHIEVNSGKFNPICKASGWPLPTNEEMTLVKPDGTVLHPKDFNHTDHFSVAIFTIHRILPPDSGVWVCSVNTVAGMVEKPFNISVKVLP
human TrkA ECD (residues 36-382), sequence (P04629 other isoform, or with tags, fused parts or gaps limits assumed): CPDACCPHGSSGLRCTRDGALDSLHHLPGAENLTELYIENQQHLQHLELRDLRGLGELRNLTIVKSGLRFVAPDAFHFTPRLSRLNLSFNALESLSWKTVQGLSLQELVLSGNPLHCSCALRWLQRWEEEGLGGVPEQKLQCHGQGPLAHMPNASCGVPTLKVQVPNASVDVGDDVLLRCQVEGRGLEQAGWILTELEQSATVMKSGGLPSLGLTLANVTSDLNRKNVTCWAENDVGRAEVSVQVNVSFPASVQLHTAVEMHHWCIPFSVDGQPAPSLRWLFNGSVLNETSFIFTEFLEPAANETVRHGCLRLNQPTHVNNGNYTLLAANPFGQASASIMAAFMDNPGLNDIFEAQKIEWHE
Human TrkA ECD (residues 36-382) with C-terminal BAP tag and 6xHis tag, sequence (P04629 other isoform, or with tags, fused parts or gaps limits assumed): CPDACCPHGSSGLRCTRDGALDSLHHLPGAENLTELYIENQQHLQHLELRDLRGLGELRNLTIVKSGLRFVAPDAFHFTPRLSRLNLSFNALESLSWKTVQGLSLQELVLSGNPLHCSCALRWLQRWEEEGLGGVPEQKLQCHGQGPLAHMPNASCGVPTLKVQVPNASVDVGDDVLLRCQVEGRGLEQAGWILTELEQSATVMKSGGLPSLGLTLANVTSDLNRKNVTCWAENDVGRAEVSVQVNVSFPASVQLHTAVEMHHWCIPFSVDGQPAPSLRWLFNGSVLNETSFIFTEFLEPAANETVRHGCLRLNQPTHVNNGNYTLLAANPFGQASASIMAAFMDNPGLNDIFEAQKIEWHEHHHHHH
T4 sequence (P09619 other isoform, or with tags, fused parts or gaps limits assumed): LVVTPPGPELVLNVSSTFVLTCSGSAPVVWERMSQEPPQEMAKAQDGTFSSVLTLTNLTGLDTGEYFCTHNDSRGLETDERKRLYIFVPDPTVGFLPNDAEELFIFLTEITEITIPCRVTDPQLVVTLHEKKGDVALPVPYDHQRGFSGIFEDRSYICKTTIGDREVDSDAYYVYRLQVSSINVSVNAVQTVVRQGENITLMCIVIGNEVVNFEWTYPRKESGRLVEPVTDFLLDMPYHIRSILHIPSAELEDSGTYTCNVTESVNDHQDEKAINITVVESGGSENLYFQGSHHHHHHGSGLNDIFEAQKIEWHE
T5 sequence (Q02763 other isoform, or with tags, fused parts or gaps limits assumed): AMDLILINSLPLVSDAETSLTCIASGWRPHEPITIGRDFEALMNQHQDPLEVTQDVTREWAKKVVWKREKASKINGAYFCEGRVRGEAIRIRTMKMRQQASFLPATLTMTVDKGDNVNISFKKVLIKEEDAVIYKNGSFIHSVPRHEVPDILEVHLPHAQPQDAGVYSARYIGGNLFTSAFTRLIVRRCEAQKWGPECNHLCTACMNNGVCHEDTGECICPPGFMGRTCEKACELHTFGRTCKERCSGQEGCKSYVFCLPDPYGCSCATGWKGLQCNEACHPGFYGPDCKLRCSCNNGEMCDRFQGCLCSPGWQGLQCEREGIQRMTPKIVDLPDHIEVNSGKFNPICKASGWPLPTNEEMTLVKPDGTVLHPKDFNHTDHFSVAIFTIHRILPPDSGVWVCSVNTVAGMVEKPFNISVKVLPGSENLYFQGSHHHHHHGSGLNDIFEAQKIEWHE
IL-7Rα ectodomain (residues 37-231), sequence (P16871 other isoform, or with tags, fused parts or gaps limits assumed): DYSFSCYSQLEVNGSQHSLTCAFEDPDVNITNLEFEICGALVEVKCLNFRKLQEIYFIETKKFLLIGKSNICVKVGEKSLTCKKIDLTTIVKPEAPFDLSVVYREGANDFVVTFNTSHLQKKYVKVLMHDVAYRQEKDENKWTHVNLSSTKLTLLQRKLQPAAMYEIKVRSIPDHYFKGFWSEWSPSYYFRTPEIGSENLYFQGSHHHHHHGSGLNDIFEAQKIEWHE
T7 sequence (P21802 147-366): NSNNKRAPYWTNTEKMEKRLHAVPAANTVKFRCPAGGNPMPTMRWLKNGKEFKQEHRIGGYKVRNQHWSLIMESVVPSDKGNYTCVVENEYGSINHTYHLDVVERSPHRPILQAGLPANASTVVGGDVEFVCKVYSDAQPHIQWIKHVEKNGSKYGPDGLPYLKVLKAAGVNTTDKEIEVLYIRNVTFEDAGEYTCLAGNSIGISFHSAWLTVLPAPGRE
T13 sequence (P04234 22-105 limits assumed): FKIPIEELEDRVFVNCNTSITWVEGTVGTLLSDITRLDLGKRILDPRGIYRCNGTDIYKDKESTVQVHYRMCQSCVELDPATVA
T10 sequence (P21802 other isoform, or with tags, fused parts or gaps limits assumed, form in doubt): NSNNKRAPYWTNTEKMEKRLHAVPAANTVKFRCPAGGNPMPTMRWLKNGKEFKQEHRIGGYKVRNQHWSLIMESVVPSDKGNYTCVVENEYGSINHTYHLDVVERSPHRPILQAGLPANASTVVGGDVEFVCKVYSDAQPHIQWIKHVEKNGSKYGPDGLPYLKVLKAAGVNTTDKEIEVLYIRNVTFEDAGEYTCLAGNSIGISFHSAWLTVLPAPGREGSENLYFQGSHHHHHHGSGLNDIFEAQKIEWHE
T9 sequence (P21802 other isoform, or with tags, fused parts or gaps limits assumed, form in doubt): as above

For “IL-7Rα_mb (SVIEKLRKLEKQARKQGDEVLVMLARMVLEYLEKGWVSEEDADESADRIEEVLKK)”, the Kd (IL-7Rα; target IL-7Rα, optimized sequence, read-out: Octet kD) was 0.312 nM and the TM ([1]; optimized sequence) was >95 °C.

In the case of “IL-7Rα binder: de novo miniprotein binder for IL-7Rα targeting the IL-7 binding site; probably IL7Ra_mb2, SEQ ID NO: 760 (SVKKKVRKVEKKARKAGDELAVLLARRVLEALEKGLVSEEDADESADRIEEALKK)”, the “affinity for IL-7Rα (in words)” value (IL-7Rα; targeting the IL-7 binding site) is reported as “picomolar affinity”.

B1: EGFRc_mb (designed binder)
chain: MSHHHHHHHHSENLYFQSGGGSLDEAKKLLQEAEKLARKLNDRMELAYVEFLKHILETAKKQNDKRTIESVRDMARDALEELQS
With B1 the Kd [2] was 6.8 nM and the TM ([1]; optimized sequence) was 71.2 °C.

B2: InsulinR binder: optimized de novo miniprotein binder to insulin receptor; probably InsulinR_mb5, SEQ ID NO: 788 (protein)
chain: DEELLELVYEAVEKNDPRLLFEAWMILASLLDKTGDPKIEELLRLLQLVDRGDPDARRRIKELFK
With B2 the “binding affinity for InsulinR (in words)” value (InsulinR) was “weak”.

B3: IL-7Rα_mb (designed binder)
chain: MSHHHHHHHHSENLYFQSGGGSVIEKLRKLEKQARKQGDEVLVMLARMVLEYLEKGWVSEEDADESADRIEEVLKK
In the case of B3, the Kd [3] is reported as 0.312 nM.

B4: PDGFR_mb (designed binder)
chain: MSHHHHHHHHSENLYFQSGGGDDERLATLAFRALIKRAGVKNLDVKVTNGKVRVTITGRDQASFKALQLVFALARRLGLQVQIDTR
In the case of B4, the Kd [4] is reported as 53 nM and the TM ([1]; optimized sequence) is reported as >95 °C.

B5: TrkA_mb (optimized TrkA binder, purified from E. coli) (designed binder)
chain: MSHHHHHHHHSENLYFQSGGGRDEIKERIFKAVVRAIVTGNPEQLKEAKKLLEKLKKLGRLDQDAKKFEKAIRQVEKRLRS
In the case of B5, the Kd [5] is reported as ≤ 1 nM.

B6: TrkA_mb (designed binder)
chain: MSHHHHHHHHSENLYFQSGGGRDEIKERIFKAVVRAIVTGNPEQLKEAKKLLEKLKKLGRLDQDAKKFEKAIRQVEKRLRS
Molecule B6 has a Kd [6] of 1.4 nM.

B7: VirB8_mb (designed binder)
chain: MSHHHHHHHHSENLYFQSGGGNAEEITEKATLVGIEAWLLAKDEEQKKKVRTLNRQVKKLLQQNDLDQAKRVLDQLKSVLEDLKS
Work on B7 yielded a Kd [7] of 0.5 nM, a TM [1] of 66.2 °C and a Kd (VirB8) of 0.5 nM.

B8: MBP-tagged Tie2_mb (designed binder)
chain: SIDEELERLLEEAGVDPELIDDLYAVIYQLYIRGLSDKDVLRFLLENLERDGTPLRRVVEELLKR
notes: not shown: N-terminal 6 His-tag and MBP tag
For B8, the Kd [8] was 584 nM.

B9: Tie2 binder: optimized de novo miniprotein binder to Tie2; probably Tie2_mb2, SEQ ID NO: 1451 (protein)
chain: SIDEELERLLEEAGVDPELIDDLYAVIYQLYIRGLSDKDVLRFLLENLERDGTPLRRVVEELLKR
For B9, the “binding affinity for Tie2 (in words)” value (Tie2) was “weak and low”.

B10: Tie2_mb (protein)
chain: SIDEELERLLEEAGVDPELIDDLYAVIYQLYIRGLSDKDVLRFLLENLERDGTPLRRVVEELLKR
modifications: left off: large carriers
With B10 the TM ([1]; optimized sequence) was >95 °C.

B11: FGFR2 binder: optimized de novo miniprotein binder to FGFR2; probably SEQ ID NO: 144 (protein)
chain: DRRKEMDKVYRTAFKRITSTPDKEKRKEVVKEATEQLRRIAKDEEEKKKAAYMILFLKTLG
For B11, the “affinity for FGFR2 (in words)” value (FGFR2) was “picomolar” and the “inhibition of signaling through FGFR2 by the native agonist” value (signaling through FGFR2) was “strong inhibition of signaling”.

B12: EGFRn_mb (designed binder)
chain: MSHHHHHHHHSENLYFQSGGGDHWEEVFRWALEHLQEATQQNDPQKAKKILEEAHKWLRRELSEEEARAVVRWLKQLVDRELS
In the case of B12, the Kd [2] is reported as 1.7 nM and the TM ([1]; optimized sequence) is reported as >95 °C.

B13: InsulinR_mb (designed binder)
chain: MSHHHHHHHHSENLYFQSGGGDEELMELVYEAVEKNDPELLFEAWMELASLLDETGDPKIEEALGLLQQVDGGNPDAGRRIKELFK
In the case of B13, the Kd [9] is reported as 270 nM and the TM ([1]; optimized sequence) is reported as 65 °C ° C.

B14: FGFR2_mb (optimized FGFR2 binder, purified from E. coli) (designed binder)
chain: MSHHHHHHHHSENLYFQSGGGDRRKEMDKVYRTAFKRITSTPDKEKRKEVVKEATEQLRRIAKDEEEKKKAAYMILFLKTLG
notes: also called FGFR2_mb3
In the case of B14, the Kd [10] is reported as ≤ 1 nM.

B15: FGFR2_mb (designed binder)
chain: MSHHHHHHHHSENLYFQSGGGDRRKEMDKVYRTAFKRITSTPDKEKRKEVVKEATEQLRRIAKDEEEKKKAAYMILFLKTLG
For B15, the Kd [11] was 0.543 nM and the TM ([1]; optimized sequence) was 71.1 ºC ° C.

B16: MBP-tagged IGF1R_mb (designed binder)
chain: STRNAEFIMLLLELCVKSKNDPQVQEYVKKVKKQVERLVGNGDEKKAEEVARKALEYCADG
notes: as for B8
In the case of B16, the “binding affinity for IGF1R (in words)” value (IGF1R) is reported as “weak and low”, the Kd [12] is reported as 860 nM and the TM ([1]; optimized sequence) is reported as >95 °C.

B17: CD3δ_mb (designed binder)
chain: MSHHHHHHHHSENLYFQSGGGNHIACEIHNPEAAKEIAKVANVRRVYFIKQPGNRYFVLLKNADPEGVKKVRSKYNVRCVIRE
In the case of B17, the Kd [13] is reported as 612 nM and the TM ([1]; optimized sequence) is reported as >95 °C.

B18: H3_mb (designed binder)
chain: MSHHHHHHHHSENLYFQSGGGSQHEKFLEWMLRKIEEAIKRGNKISAEFLINLAKNFIHVLGDDEIRRRLERLERQLH
With B18 the Kd [14] was 320 nM and the TM [1] was >95 °C.

B19: H3_mb (optimized H3 hemagglutinin binder, purified from E. coli) (designed binder)
chain: MSHHHHHHHHSENLYFQSGGGSQHEKFLEWMLRKIEEAIKRGNKISAEFLINLAKNFIHVLGDDEIRRRLERLERQLH
B19: binds [15].

B20: TGF-β_mb (designed binder)
chain: MSHHHHHHHHSENLYFQSGGGHCTIEVVGVDPEKVEAIAAAYGAEVCEKDGKFEIHLDDPHSAESAAVAISVLTNRPVRLQC
For B20, the Kd [16] was 270 nM and the TM ([1]; optimized sequence) was >95 °C.
